Data from publication PMC3912440 (Scientific Reports, 2014).

System: Mononuclear cell-derived human myeloid dendritic cells
Format: cell-based
Conditions: 0.02 μM HagB alone

B1: HagB: recombinant hemagglutinin B of P. gingivalis, 49.0 kDa protein composed of 350 amino acid residues (protein)
chain: MTVENLRLQRLQNLEHYRFAKNVLTLCRTANIAKLNPKLPELEKAIEMEDLALNPPVANELTPQVIALDEERDRAYQALMSRVRSYAFDEDSQLRNAAARIEDVAARYGNVIRMNYDKETAAIENFLTDLKGENIRPLVTKLGVTALVDRLEKNNKAFADFFLRRLSTDQRGKYDVKALRAETDRTLVAVVRRMDSIDDMEPSPEIRALIELYNRLVANRRALLARRASYGEAAVEKRRAEIAEMLRPLLARIVEEKKTAVFAGRTLGTGKNRHYLITFVAENGDEEDRWYRINGEQLVYVPEDELPKPKKKKKPASSTDTPSEPPVLPDPSQGGSSSGGGEQGSTGGGL
modifications: left off: His6 (from the vector pQE31), end not stated, state not stated
Q: What does the source list for B1?
A: CCL3/MIP-1α, CCL4/MIP-1β, and TNFα responses induced: strong; CSF2/GM-CSF response induced: weaker
